In patent US11702666B2, “Cell-based assay for determining activity in the retinoblastoma pathway” (Medical Diagnostic Laboratories, LLC, priority 2017, dated 2023):

Tested on: E2F1/Dp-1 heterodimer
Experiment: Rb activity assay (LB-Rb with E2F1-SB, DP1 split luciferase)
Format: cell-based, human
Set-up: key to Observed activity: N—no activity; A—active as WT; R—reduced activity compared to the WT
Settings: Rb mutants; for % (/wt): activity relative to WT
Excerpt: An assay that could measure the interaction between Rb, E2F1, and Dp-1 was developed. Since Dp-1 forms a heterodimer with E2F1 and that interaction is crucial for Rb/E2F1 binding, the assay was comprised of three components. When two proteins (Rb and E2F1) are in close proximity or in complex, a light signal was observed. For the purposes of the current assay, split-luciferase complementation was used to measure the interaction between Rb and E2F1. The NanoBiT assay system by Promega (Madison, Wis.; Dixon et al., 2015, ACS ChemBiol) was used in our split luciferase complementation design.
FIG. 16 depicts the design of a signal system to measure Rb activity. Under basal conditions inside the cell, Rb was active and interacted with the E2F1/Dp-1 heterodimer. For this assay design, cDNAs of Rb linked to different parts of the luciferase protein, either termed as the “Small BiT” (SB), or “Large BiT” (LB) and E2F1 linked to the opposite portion of the luciferase protein were created. When Rb and E2F1/Dp-1 bind, the NanoBiT parts of the luciferase form a complex and emitted a light signal when the luciferase (NanoGlo) substrate was added.
Using the described assay design, HEK293 CDK DKO cells were transiently transfected with different combinations of SB-Rb or LB-Rb and E2F1-LB or E2F1-SB components containing C-terminal and N-terminal constructs (FIG. 17). Relative intensities generated are presented in FIG. 17 as relative luminescence units (RLU). The data represents a sample experiment where each condition was performed in triplicate and represent mean+SD.
The LB-Rb and E2F1-SB with Dp-1 were tested for Rb activity using known Rb null mutants: R661W and C706F (FIG. 18A). […] Rb in-frame (del35) and out-of frame (del1) deletion mutants (FIG. 18B) were constructed and the observed luciferase activity was close to 0, in particular for del1 mutant, because Rb-E2F1 binding was destroyed.
Within the provided assay design, stable cell lines using the HEK293 CDK DKO cell parent line expressing E2F1-SB and Dp-1 were produced. After selection and screening for positive clones using an LB-Rb-mediated increase in signal, four stable single cell clones were selected and evaluated using different Rb mutants (FIGS. 19A and 19B). The response to E2F1 interaction was also checked by using the plasmid and linear form of DNA. Cell line #37 was selected for all our experiments in assay development due to its favorable response.
The conditions of the assay were further optimized by analyzing different cell numbers and Rb concentrations (FIG. 20). Based on the data, it was decided to use 0.2×10^6 cells/ml and 70 ng of DNA in the assay.
Known null and out/in-frame deletion mutants disrupting E2F1 binding and unknown COSMIC mutants were created to examine the ability of the assay to detect variants in Rb that affect function. We transfected WT or mutated Rb using similar conditions as previously indicated (FIG. 20). […] In addition, the null C706F and deletion (del1) mutants presented a signal close to zero as expected for loss of function mutants that disrupt E2F1 interaction. […] This confirmed that the assay was capable of determining the relative activity level of Rb mutants. The data is provided in Luminescence (RLU) of a single experiment with each condition performed in triplicate and represent average+SD.

Sequence of E2F1/Dp-1 heterodimer (Q01094 58-437 limits assumed): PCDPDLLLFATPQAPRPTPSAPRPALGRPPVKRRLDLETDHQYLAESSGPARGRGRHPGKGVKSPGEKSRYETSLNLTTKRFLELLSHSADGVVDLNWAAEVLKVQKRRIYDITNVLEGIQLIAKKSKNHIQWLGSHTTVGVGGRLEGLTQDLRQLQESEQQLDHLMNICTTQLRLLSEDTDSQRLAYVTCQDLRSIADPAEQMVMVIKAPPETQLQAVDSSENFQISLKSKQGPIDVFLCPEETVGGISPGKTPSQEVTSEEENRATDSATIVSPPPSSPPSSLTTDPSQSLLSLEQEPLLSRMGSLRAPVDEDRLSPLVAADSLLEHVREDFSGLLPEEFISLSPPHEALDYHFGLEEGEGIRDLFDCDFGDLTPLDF
Sequence of E2F1/Dp-1 heterodimer (Q14186 whole entry, further chain): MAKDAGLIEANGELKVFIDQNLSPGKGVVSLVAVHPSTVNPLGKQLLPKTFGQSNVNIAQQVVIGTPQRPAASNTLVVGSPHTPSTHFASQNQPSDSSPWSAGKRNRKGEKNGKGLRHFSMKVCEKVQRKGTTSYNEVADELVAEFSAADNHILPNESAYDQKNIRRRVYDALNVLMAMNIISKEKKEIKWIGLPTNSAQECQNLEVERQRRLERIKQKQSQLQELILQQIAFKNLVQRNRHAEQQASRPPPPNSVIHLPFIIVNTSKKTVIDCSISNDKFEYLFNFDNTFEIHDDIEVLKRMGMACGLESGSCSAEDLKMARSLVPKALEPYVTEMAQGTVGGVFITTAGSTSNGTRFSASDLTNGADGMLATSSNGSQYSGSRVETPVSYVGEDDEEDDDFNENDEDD

Observed activity	% (/wt) [%]	Molecule
N	6.4	Rb R698W: Rb mutant from COSMIC database (protein, UniProt P06400 2-928, looked up, variant R698W) Retinoblastoma-associated …: PPKTPRKTAATAAAAAAEPPAPPPPPPPEEDPEQDSGPEDLPLVRLEFEETEEPDFTALCQKLKIPDHVRERAWLTWEKVSSVDGVLGGYIQKKKELWGICIFIAAVDLDEMSFTFTELQKNIEISVHKFFNLLKEIDTSTKVDNAMSRLLKKYDVLFALFSKLERTCELIYLTQPSSSISTEINSALVLKVSWITFLLAKGEVLQMEDDLVISFQLMLCVLDYFIKLSPPMLLKEPYKTAVIPINGSPRTPRRGQNRSARIAKQLENDTRIIEVLCKEHECNIDEVKNVYFKNFIPFMNSLGLVTSNGLPEVENLSKRYEEIYLKNKDLDARLFLDHDKTLQTDSIDSFETQRTPRKSNLDEEVNVIPPHTPVRTVMNTIQQLMMILNSASDQPSENLISYFNNCTVNPKESILKRVKDIGYIFKEKFAKAVGQGCVEIGSQRYKLGVRLYYRVMESMLKSEEERLSIQNFSKLLNDNIFHMSLLACALEVVMATYSRSTSQNLDSGTDLSFPWILNVLNLKAFDFYKVIESFIKAEGNLTREMIKHLERCEHRIMESLAWLSDSPLFDLIKQSKDREGPTDHLESACPLNLPLQNNHTAADMYLSPVRSPKKKGSTTRVNSTANAETQATSAFQTQKPLKSTSLSLFYKKVYRLAYLRLNTLCERLLSEHPELEHIIWTLFQHTLQNEYELMRDWHLDQIMMCSMYGICKVKNIDLKFKIIVTAYKDLPHAVQETFKRVLIKEEEYDSIIVFYNSVFMQRLKTNILQYASTRPPTLSPIPHIPRSPYKFPSSPLRIPGGNIYISPLKSPYKISEGLPTPTKMTPRSRILVSIGESFGTSEKFQKINQMVCNSDRVLKRSAEGSNPPKPLKKLRFDIEGSDEADGSKHLPGESKFQQKLAEMTSTRTRMQKQKMNDSMDTSNKEEK
A	79	Rb R656W: Rb mutant from COSMIC database (protein, UniProt P06400 2-928, looked up, variant R656W) Retinoblastoma-associated …: PPKTPRKTAATAAAAAAEPPAPPPPPPPEEDPEQDSGPEDLPLVRLEFEETEEPDFTALCQKLKIPDHVRERAWLTWEKVSSVDGVLGGYIQKKKELWGICIFIAAVDLDEMSFTFTELQKNIEISVHKFFNLLKEIDTSTKVDNAMSRLLKKYDVLFALFSKLERTCELIYLTQPSSSISTEINSALVLKVSWITFLLAKGEVLQMEDDLVISFQLMLCVLDYFIKLSPPMLLKEPYKTAVIPINGSPRTPRRGQNRSARIAKQLENDTRIIEVLCKEHECNIDEVKNVYFKNFIPFMNSLGLVTSNGLPEVENLSKRYEEIYLKNKDLDARLFLDHDKTLQTDSIDSFETQRTPRKSNLDEEVNVIPPHTPVRTVMNTIQQLMMILNSASDQPSENLISYFNNCTVNPKESILKRVKDIGYIFKEKFAKAVGQGCVEIGSQRYKLGVRLYYRVMESMLKSEEERLSIQNFSKLLNDNIFHMSLLACALEVVMATYSRSTSQNLDSGTDLSFPWILNVLNLKAFDFYKVIESFIKAEGNLTREMIKHLERCEHRIMESLAWLSDSPLFDLIKQSKDREGPTDHLESACPLNLPLQNNHTAADMYLSPVRSPKKKGSTTRVNSTANAETQATSAFQTQKPLKSTSLSLFYKKVYWLAYLRLNTLCERLLSEHPELEHIIWTLFQHTLQNEYELMRDRHLDQIMMCSMYGICKVKNIDLKFKIIVTAYKDLPHAVQETFKRVLIKEEEYDSIIVFYNSVFMQRLKTNILQYASTRPPTLSPIPHIPRSPYKFPSSPLRIPGGNIYISPLKSPYKISEGLPTPTKMTPRSRILVSIGESFGTSEKFQKINQMVCNSDRVLKRSAEGSNPPKPLKKLRFDIEGSDEADGSKHLPGESKFQQKLAEMTSTRTRMQKQKMNDSMDTSNKEEK

The remaining lines, values behind:

Molecule	Observed activity	% (/wt) [%]
Rb I680T: Rb mutant from COSMIC database (protein) MVFTLEDFVGDWEQTAAYNLDQVLEQGGVSSLLQNLAVSVTPIQRIVRSGENALKIDIHVIIPYEGLSADQMAQIEEVFKVVYPVDDHHFKVILPYGTLVIDGVTPNMLNYFGRPYEGIAVFDGKKITVTGTLWNGNKIIDERLITPDGSMLFRVTINSGSSGGGGSGGGGSSGGAQGNSNTIQQLMMILNSASDQPSENLISYFNNCTVNPKESILKRVKDIGYIFKEKFAKAVGQGCVEIGSQRYKLGVRLYYRVMESMLKSEEERLSIQNFSKLLNDNIFHMSLLACALEVVMATYSRSTSQNLDSGTDLSFPWILNVLNLKAFDFYKVIESFIKAEGNLTREMIKHLERCEHRIMESLAWLSDSPLFDLIKQSKDREGPTDHLESACPLNLPLQNNHTAADMYLSPVRSPKKKGSTTRVNSTANAETQATSAFQTQKPLKSTSLSLFYKKVYRLAYLRLNTLCERLLSEHPELEHITWTLFQHTLQNEYELMRDRHLDQIMMCSMYGICKVKNIDLKFKIIVTAYKDLPHAVQETFKRVLIKEEEYDSIIVFYNSVFMQRLKTNILQYASTRPPTLSPIPHIPRSPYKFPSSPLRIPGGNIYISPLKSPYKISEGLPTPTKMTPRSRILVSIGESFGTSEKFQKINQMVCNSDRVLKRSAEGSNPPKPLKKLRFDIEGSDEADGSKHLPGESKFQQKLAEMTSTRTRMQKQKMNDSMDTSNKEEK	R	32
Rb A488V: Rb mutant from COSMIC database (protein, UniProt P06400 2-928, looked up, variant A488V) Retinoblastoma-associated …: PPKTPRKTAATAAAAAAEPPAPPPPPPPEEDPEQDSGPEDLPLVRLEFEETEEPDFTALCQKLKIPDHVRERAWLTWEKVSSVDGVLGGYIQKKKELWGICIFIAAVDLDEMSFTFTELQKNIEISVHKFFNLLKEIDTSTKVDNAMSRLLKKYDVLFALFSKLERTCELIYLTQPSSSISTEINSALVLKVSWITFLLAKGEVLQMEDDLVISFQLMLCVLDYFIKLSPPMLLKEPYKTAVIPINGSPRTPRRGQNRSARIAKQLENDTRIIEVLCKEHECNIDEVKNVYFKNFIPFMNSLGLVTSNGLPEVENLSKRYEEIYLKNKDLDARLFLDHDKTLQTDSIDSFETQRTPRKSNLDEEVNVIPPHTPVRTVMNTIQQLMMILNSASDQPSENLISYFNNCTVNPKESILKRVKDIGYIFKEKFAKAVGQGCVEIGSQRYKLGVRLYYRVMESMLKSEEERLSIQNFSKLLNDNIFHMSLLVCALEVVMATYSRSTSQNLDSGTDLSFPWILNVLNLKAFDFYKVIESFIKAEGNLTREMIKHLERCEHRIMESLAWLSDSPLFDLIKQSKDREGPTDHLESACPLNLPLQNNHTAADMYLSPVRSPKKKGSTTRVNSTANAETQATSAFQTQKPLKSTSLSLFYKKVYRLAYLRLNTLCERLLSEHPELEHIIWTLFQHTLQNEYELMRDRHLDQIMMCSMYGICKVKNIDLKFKIIVTAYKDLPHAVQETFKRVLIKEEEYDSIIVFYNSVFMQRLKTNILQYASTRPPTLSPIPHIPRSPYKFPSSPLRIPGGNIYISPLKSPYKISEGLPTPTKMTPRSRILVSIGESFGTSEKFQKINQMVCNSDRVLKRSAEGSNPPKPLKKLRFDIEGSDEADGSKHLPGESKFQQKLAEMTSTRTRMQKQKMNDSMDTSNKEEK	R	51
Rb E440K: Rb mutant from COSMIC database (protein, UniProt P06400 2-928, looked up, variant E440K) Retinoblastoma-associated …: PPKTPRKTAATAAAAAAEPPAPPPPPPPEEDPEQDSGPEDLPLVRLEFEETEEPDFTALCQKLKIPDHVRERAWLTWEKVSSVDGVLGGYIQKKKELWGICIFIAAVDLDEMSFTFTELQKNIEISVHKFFNLLKEIDTSTKVDNAMSRLLKKYDVLFALFSKLERTCELIYLTQPSSSISTEINSALVLKVSWITFLLAKGEVLQMEDDLVISFQLMLCVLDYFIKLSPPMLLKEPYKTAVIPINGSPRTPRRGQNRSARIAKQLENDTRIIEVLCKEHECNIDEVKNVYFKNFIPFMNSLGLVTSNGLPEVENLSKRYEEIYLKNKDLDARLFLDHDKTLQTDSIDSFETQRTPRKSNLDEEVNVIPPHTPVRTVMNTIQQLMMILNSASDQPSENLISYFNNCTVNPKESILKRVKDIGYIFKEKFAKAVGQGCVKIGSQRYKLGVRLYYRVMESMLKSEEERLSIQNFSKLLNDNIFHMSLLACALEVVMATYSRSTSQNLDSGTDLSFPWILNVLNLKAFDFYKVIESFIKAEGNLTREMIKHLERCEHRIMESLAWLSDSPLFDLIKQSKDREGPTDHLESACPLNLPLQNNHTAADMYLSPVRSPKKKGSTTRVNSTANAETQATSAFQTQKPLKSTSLSLFYKKVYRLAYLRLNTLCERLLSEHPELEHIIWTLFQHTLQNEYELMRDRHLDQIMMCSMYGICKVKNIDLKFKIIVTAYKDLPHAVQETFKRVLIKEEEYDSIIVFYNSVFMQRLKTNILQYASTRPPTLSPIPHIPRSPYKFPSSPLRIPGGNIYISPLKSPYKISEGLPTPTKMTPRSRILVSIGESFGTSEKFQKINQMVCNSDRVLKRSAEGSNPPKPLKKLRFDIEGSDEADGSKHLPGESKFQQKLAEMTSTRTRMQKQKMNDSMDTSNKEEK	R	47
